Measured values taken from patent EP0999853B1.

Biological target: recombinant preparation of soluble MAC-1 (UniProt P11215)
Experiment: MAC-1 capture ELISA over total F(ab')2 ELISA; 5 weeks of storage, all formulations F1-F5

- loss of specific activity at 40°C relative to -70°C: 10 to 15%
Substance: recombinant humanized anti-CD18 antibody (rhuMAb CD18)
